Patent US20260209350A1 (Alector, published 2026)
Residue numbers refer to the chain shown, from its start.

T1: mouse TREM2 on cells (mouse, UniProt Q99NH8 19-227)
T1 construct: whole, on cells; Used for the recombinant protein on BWZ/BW cells (with mouse DAP12) and for the native protein on mouse macrophages and dendritic cells; the cell type stands under assay; also called mTREM2; mTrem2
T1 sequence (looked up): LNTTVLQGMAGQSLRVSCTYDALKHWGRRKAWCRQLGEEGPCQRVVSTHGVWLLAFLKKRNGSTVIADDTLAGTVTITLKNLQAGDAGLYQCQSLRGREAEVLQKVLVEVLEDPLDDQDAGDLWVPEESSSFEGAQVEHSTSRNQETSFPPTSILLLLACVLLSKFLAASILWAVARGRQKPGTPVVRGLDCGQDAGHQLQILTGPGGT

T2: human TREM2 Fc fusion protein (human, UniProt Q9NZC2 19-174)
T2 construct: also called hTREM2-Fc; not shown: Fc part not specified
T2 sequence: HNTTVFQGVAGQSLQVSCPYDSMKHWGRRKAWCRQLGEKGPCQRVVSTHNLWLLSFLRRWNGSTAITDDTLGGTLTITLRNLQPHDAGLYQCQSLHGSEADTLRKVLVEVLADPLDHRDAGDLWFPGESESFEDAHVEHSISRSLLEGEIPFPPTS

T3: mouse TREM2 Fc fusion protein (mouse, UniProt Q99NH8 19-171)
T3 construct: also called mTREM2-Fc; not shown: Fc part not specified
T3 sequence (looked up): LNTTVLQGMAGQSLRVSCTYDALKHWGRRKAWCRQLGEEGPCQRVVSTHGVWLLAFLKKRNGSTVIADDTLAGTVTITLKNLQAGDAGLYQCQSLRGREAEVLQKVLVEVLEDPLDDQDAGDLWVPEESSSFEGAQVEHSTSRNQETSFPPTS

T4: human monomeric His tagged TREM2 protein (human, UniProt Q9NZC2 19-174)
T4 construct: also called hTREM2-HIS
T4 sequence: T2 sequence

B1: Ab66 (antibody, human IgG1, V domains shown)
VH: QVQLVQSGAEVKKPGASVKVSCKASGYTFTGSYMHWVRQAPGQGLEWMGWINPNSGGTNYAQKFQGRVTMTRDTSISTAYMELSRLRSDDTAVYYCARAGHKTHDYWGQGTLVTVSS
VL: EIVLTQSPGTLSLSPGERATLSCRASQSVSSYLAWYQQKPGQAPRLLIYDASNRATGIPARFSGSGSGTDFTLTISSLEPEDFAVYYCQQRSAYPITFGGGTKVEIK
notes: human IgG1
B2: Ab68 (antibody, human IgG1, V domains shown)
VH: QVQLVESGGGVVQPGRSLRLSCAASGFTFSSYGMHWVRQAPGKGLEWVALIWYDGSNKYYADSVKGRFTISRDNSKNTLYLQMNSLRAEDTAVYYCAKPGSMTDYWGQGTLVTVSS
VL: B1 VL with G9A, S92A, A93N
notes: human IgG1
B3: Ab78 (antibody, human IgG1, V domains shown)
VH: QVQLVESGGGVVQPGRSLRLSCAASGFTFSSYGMHWVRQAPGKGLEWVAVIWYDGSNKYYADSVKGRFTISRDNSKNTLYLQMNSLRAEDTAVYYCARTPYPWIYFDLWGRGTLVTVSS
VL: B1 VL with G9A, R91A, S92D, A93N, Y94W, I96F
notes: human IgG1
B4: Ab7 (antibody, human IgG1, V domains shown)
VH: QVQLVQSGAEVKKPGASVKVSCKASGYTFTSYYMHWVRQAPGQGLEWMGIINPSGGSTTYAQKFQGRVTMTRDTSTSTVYMELSSLRSEDTAVYYCARTSSKERDYWGQGTLVTVSS
VL: B1 VL with G9A, N53K, S92I, A93S
notes: human IgG1
B5: Ab69 (antibody, human IgG1, V domains shown)
VH: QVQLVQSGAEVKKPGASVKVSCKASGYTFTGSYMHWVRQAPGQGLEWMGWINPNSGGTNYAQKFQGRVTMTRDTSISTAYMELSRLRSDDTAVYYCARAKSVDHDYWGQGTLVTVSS
VL: B1 VL with G9A, S92A, A93D
notes: human IgG1
B6: Ab2 (antibody, human IgG1, V domains shown)
VH: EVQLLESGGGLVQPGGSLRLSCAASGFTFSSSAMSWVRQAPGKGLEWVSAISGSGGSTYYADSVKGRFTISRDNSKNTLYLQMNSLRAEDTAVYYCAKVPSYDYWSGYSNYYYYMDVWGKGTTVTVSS
VL: EIVLTQSPATLSVSPGERATLSCRASQSVGSNLAWYQQKPGQAPRLLIYGASTRATGIPARFSGSGSGTEFTLTISSLQSEDFAVYYCQQYFFYPPTFGGGTKVEIK
notes: human IgG1
B7: Ab63 (antibody, human IgG1, V domains shown)
VH: QVQLVQSGAEVKKPGASVKVSCKASGYTFTSYGISWVRQAPGQGLEWMGWISTYNGNTNYAQKLQGRVTMTTDTSTSTAYMELRSLRSDDTAVYYCARGSGSGYDSWYDWGQGTLVTVSS
VL: DIQMTQSPSSVSASVGDRVTITCRASQGIDSWLAWYQQKPGKAPKLLIYAASSLQSGVPSRFSGSGSGTDFTLTISSLQPEDFATYYCQQAYSLPPTFGGGTKVEIK
notes: human IgG1
B8: Ab84 (antibody, human IgG1, V domains shown)
VH: B7 VH
VL: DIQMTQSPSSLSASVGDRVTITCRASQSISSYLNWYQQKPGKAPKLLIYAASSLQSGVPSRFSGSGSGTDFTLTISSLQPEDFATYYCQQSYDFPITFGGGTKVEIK
notes: human IgG1
B9: Ab71 (antibody, human IgG1, V domains shown)
VH: QVQLVQSGAEVKKPGASVKVSCKASGYTFTSYYMHWVRQAPGQGLEWMGIINPSGGSTSYAQKFQGRVTMTRDTSTSTVYMELSSLRSEDTAVYYCARDISTHDYDLAFDIWGQGTMVTVSS
VL: EIVMTQSPGTLSLSPGERATLSCRASQSVSSSYLAWYQQKPGQAPRLLIYGASNRATGIPDRFSGSGSGTDFTLTISRLEPEDFAVYYCQQAGSHPFTFGGGTKVEIK
notes: human IgG1

target: T1, mouse TREM2 on cells; assay: FACS, mTrem2 cells

MFI [MFI] | Binder
4100 | B1
2100 | B2
433 | B3
10900 | B4
629 | B5
1430 | B6
1720 | B7
799 | B8
804 | B9

target: T2, human TREM2 Fc fusion protein; assay: ForteBio or MSD-SET, avid

Kd [nM] | Binder
1.98 | B1
6.68 | B2
0.851 | B3
1.05 | B4
3.75 | B5
0.592 | B6
1.13 | B7
1.16 | B8
2.77 | B9

target: T3, mouse TREM2 Fc fusion protein; assay: ForteBio or MSD-SET, avid

Kd [nM] | binding result | Binder
3.88 | – | B1
3.26 | – | B2
– | no binding | B3
1.11 | – | B4
3.4 | – | B5
– | no binding | B6
– | no binding | B7
– | no binding | B8
– | no binding | B9

target: T4, human monomeric His tagged TREM2 protein; assay: ForteBio or MSD-SET, monovalent

Kd [nM] | Binder
60.7 | B1
109 | B2
37.3 | B3
33.4 | B4
59.7 | B5
24.1 | B6
49.6 | B7
60.4 | B8
64.7 | B9
